One block for each binder: values may come before it. Numbered stars: 1 amine (or outer) side, 2 acyl side, 3 side chain; on linkers, the order of the positions; unused ones are H or OH. Bridge positions count the residues as written; N and C are the ends. Square brackets hold non-standard residues; d marks the D form. Ends that are not written are not given here. * marks the point of attachment. RbOHPhe4CONH2 = (2S,3R)-2-amino-3-(4-carbamoylphenyl)-3-hydroxypropanoic acid, NC(=O)c1ccc([C@@H](O[*:3])[C@H](N[*:1])C(=O)[*:2])cc1; bhcLeu = (1R,3S)-3-aminocyclopentane-1-carboxylic acid, O=C([C@@H]1CC[C@H](N[*:1])C1)[*:2]; Trp(βS-Me,7-OMe) = COc1cccc2c([C@H](C)[C@H](N)C(=O)O)c[nH]c12; dPro(trans-4-NMe2) = CN(C)[C@@H]1CN[C@@H](C(=O)O)C1; Trp(7-CN) = N#Cc1cccc2c(C[C@H](N)C(=O)O)c[nH]c12; Biotin = O=C1N[C@H]2[C@H](CS[C@H]2CCCCC(=O)*)N1; Phe(4-COOH) = N[C@@H](Cc1ccc(C(=O)O)cc1)C(=O)O; Trp(7-aza) = N[C@@H](Cc1c[nH]c2ncccc12)C(=O)O; Pip(4-aza) = O=C(O)[C@@H]1CNCCN1; hPhe = N[C@@H](CCc1ccccc1)C(=O)O; 4Pal = N[C@@H](Cc1ccncc1)C(=O)O; Cit = NC(=O)NCCC[C@H](N)C(=O)O; αMeS = C[C@](N)(CO)C(=O)O; NMeA = CN[C@@H](C)C(=O)O; Nle = CCCC[C@H](N)C(=O)O; AEA = NCCOCC(=O)O; Sar = CNCC(=O)O
Columns and labels:
[1] = target: T1, TNFR1 on THP-1 Lucia NF-κB cells, P19438; assay: cell-based or functional assay
T1 chain: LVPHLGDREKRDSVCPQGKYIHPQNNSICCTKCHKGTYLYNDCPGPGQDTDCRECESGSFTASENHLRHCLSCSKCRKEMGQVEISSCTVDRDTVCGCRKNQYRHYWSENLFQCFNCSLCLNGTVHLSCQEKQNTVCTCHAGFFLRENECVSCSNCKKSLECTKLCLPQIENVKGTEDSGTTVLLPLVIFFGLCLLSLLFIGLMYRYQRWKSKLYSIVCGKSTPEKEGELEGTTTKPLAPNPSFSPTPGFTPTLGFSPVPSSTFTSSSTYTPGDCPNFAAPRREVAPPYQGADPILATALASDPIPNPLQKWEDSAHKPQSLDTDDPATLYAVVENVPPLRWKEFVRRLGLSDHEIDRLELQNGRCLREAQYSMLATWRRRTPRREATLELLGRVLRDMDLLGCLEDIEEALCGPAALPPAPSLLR

[2] = target: T2, Recombinant human TNFR1 extracellular domain (ECD) protein, biotinylated via C-terminal avi-tag (human); assay: SPR, peptide analyte on captured biotinylated TNFR1 ECD
T2 chain: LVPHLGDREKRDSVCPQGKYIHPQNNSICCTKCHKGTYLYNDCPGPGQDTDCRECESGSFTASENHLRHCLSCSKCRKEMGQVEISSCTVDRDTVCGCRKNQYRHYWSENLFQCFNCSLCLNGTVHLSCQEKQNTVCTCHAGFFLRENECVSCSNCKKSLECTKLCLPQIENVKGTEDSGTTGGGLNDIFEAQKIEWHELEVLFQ

[3] = target: T3, C'-terminally 6His-tagged human soluble TNFR1 (sTNFR1, residues 1-211) (human); assay: TR-FRET displacement of biotinylated peptide SEQ ID NO. 1 from sTNFR1-6His
T3 chain: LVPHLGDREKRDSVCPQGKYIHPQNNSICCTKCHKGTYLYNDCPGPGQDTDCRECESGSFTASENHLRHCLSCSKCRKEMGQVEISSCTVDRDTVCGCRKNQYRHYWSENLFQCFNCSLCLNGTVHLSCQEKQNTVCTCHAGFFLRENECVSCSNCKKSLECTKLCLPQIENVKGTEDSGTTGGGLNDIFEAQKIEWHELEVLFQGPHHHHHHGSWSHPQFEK

[4] = target: T4, TNFR1 on THP-1 Lucia NF-kB reporter cells, P19438; assay: cell-based or functional assay
T4 chain: T1 chain

[5] = target: human soluble TNFR1, C-terminally 6His-tagged (sTNFR1-6His, residues 1-211), SEQ. ID NO. P1 (human); assay: TR-FRET displacement of biotinylated peptide SEQ ID NO. 1 from sTNFR1-6His; Morrison-based 5-parameter fit
[6] = target: T5, human soluble TNFR1, C-terminally 6His-tagged (sTNFR1-6His, residues 1-211), SEQ. ID NO. P1 (human); assay: TR-FRET displacement of biotinylated peptide SEQ ID NO. 1 from sTNFR1-6His; 4-parameter fit
T5 chain: T3 chain

[7] = target: T6, TNFR1 on THP-1 Lucia NF-κB reporter cells, P19438; assay: cell-based or functional assay
T6 chain: T1 chain

[8] = target: T7, recombinant human TNFR1 extracellular domain (ECD), biotinylated via C-terminal Avi-tag, construct SEQ. ID NO. P2 (human); assay: SPR (Cytiva 8K/8K+), peptide analyte over captured biotinylated human TNFR1 ECD
T7 chain: T2 chain

B1: SEQ ID NO. 256 (peptide)
peptide: {CH2CO}-KYSW[dP][Cit][4Pal]W[αMeS][Phe(4-COOH)]Y[Sar]WC-NH2
modifications: thioether N-14
SMILES: CN1CC(=O)N[C@@H](Cc2c[nH]c3ccccc23)C(=O)N[C@H](C(N)=O)CSCC(=O)N[C@@H](CCCCN)C(=O)N[C@@H](Cc2ccc(O)cc2)C(=O)N[C@@H](CO)C(=O)N[C@@H](Cc2c[nH]c3ccccc23)C(=O)N2CCC[C@@H]2C(=O)N[C@@H](CCCNC(N)=O)C(=O)N[C@@H](Cc2ccncc2)C(=O)N[C@@H](Cc2c[nH]c3ccccc23)C(=O)N[C@@](C)(CO)C(=O)N[C@@H](Cc2ccc(C(=O)O)cc2)C(=O)N[C@@H](Cc2ccc(O)cc2)C1=O
THP-1 IC50 [1]: 6.1 nM
Kd [2]: 1.4 nM
IC50 [3]: 1.84 nM

Binder: {CH2CO}-FYSW[Sar]NYWSYY[Sar]WCG[AEA]K(Biotin) (thioether N-14) [SEQ ID NO. 1]
THP-1 IC50 [4]: 227 nM

B3: SEQ ID NO. 242 (peptide)
peptide: {CH2CO}-KYSW[dP]Q[4Pal]W[αMeS][Phe(4-COOH)]Y[Sar]WC-NH2
modifications: thioether N-14
SMILES: CN1CC(=O)N[C@@H](Cc2c[nH]c3ccccc23)C(=O)N[C@H](C(N)=O)CSCC(=O)N[C@@H](CCCCN)C(=O)N[C@@H](Cc2ccc(O)cc2)C(=O)N[C@@H](CO)C(=O)N[C@@H](Cc2c[nH]c3ccccc23)C(=O)N2CCC[C@@H]2C(=O)N[C@@H](CCC(N)=O)C(=O)N[C@@H](Cc2ccncc2)C(=O)N[C@@H](Cc2c[nH]c3ccccc23)C(=O)N[C@@](C)(CO)C(=O)N[C@@H](Cc2ccc(C(=O)O)cc2)C(=O)N[C@@H](Cc2ccc(O)cc2)C1=O
THP-1 IC50 [1]: 3 nM
Kd [2]: 0.3 nM
IC50 [3]: 1.21 nM

The remaining lines, values ahead:

THP-1 IC50 [1]: 50.1 nM
Kd [2]: 6 nM
IC50 [3]: 10.2 nM
B2: SEQ ID NO. 260 (peptide)
peptide: {CH2CO}-[hPhe]YSW[NMeA]N[4Pal]W[αMeS][Phe(4-COOH)]R[Sar]WC-NH2
modifications: thioether N-14
SMILES: C[C@H]1C(=O)N[C@@H](CC(N)=O)C(=O)N[C@@H](Cc2ccncc2)C(=O)N[C@@H](Cc2c[nH]c3ccccc23)C(=O)N[C@@](C)(CO)C(=O)N[C@@H](Cc2ccc(C(=O)O)cc2)C(=O)N[C@@H](CCCNC(=N)N)C(=O)N(C)CC(=O)N[C@@H](Cc2c[nH]c3ccccc23)C(=O)N[C@H](C(N)=O)CSCC(=O)N[C@@H](CCc2ccccc2)C(=O)N[C@@H](Cc2ccc(O)cc2)C(=O)N[C@@H](CO)C(=O)N[C@@H](Cc2c[nH]c3ccccc23)C(=O)N1C

Kd^app [5]: 0.22 nM
B4: SEQ ID NO. 287 (Example No. 287) macrocyclic peptide (peptide)
peptide: cyclo([bhcLeu][Nle][4Pal][Pip(4-aza)][Trp(7-aza)][dPro(trans-4-NMe2)]N[Phe(4-COOH)][Trp(7-CN)][αMeS][Phe(4-COOH)][RbOHPhe4CONH2][Sar][Trp(βS-Me,7-OMe)])
SMILES: CCCC[C@@H]1NC(=O)[C@@H]2CC[C@@H](C2)NC(=O)[C@H]([C@@H](C)c2c[nH]c3c(OC)cccc23)NC(=O)CN(C)C(=O)[C@H]([C@H](O)c2ccc(C(N)=O)cc2)NC(=O)[C@H](Cc2ccc(C(=O)O)cc2)NC(=O)[C@](C)(CO)NC(=O)[C@H](Cc2c[nH]c3c(C#N)cccc23)NC(=O)[C@H](Cc2ccc(C(=O)O)cc2)NC(=O)[C@H](CC(N)=O)NC(=O)[C@H]2C[C@H](N(C)C)CN2C(=O)[C@H](Cc2c[nH]c3ncccc23)NC(=O)[C@@H]2CNCCN2C(=O)[C@H](Cc2ccncc2)NC1=O

IC50 [6]: 9.87 nM
THP-1 IC50 [7]: 36.4 nM
Kd [8]: 7.43 nM
Binder: FYSWGNYWSYYGWCGEE (modifications not checked) [SEQ ID NO. 289 (Example No. 289) macrocyclic peptide]

Source: patent publication US20240287138A1, “CYCLIC PEPTIDES FOR INHIBITING TNF RECEPTOR 1 ACTIVITY” (Merck Sharp & Dohme LLC, priority 2023, published 2024)
